From the RNAGym collection of RNA variant scans (doi:10.1073/pnas.2313332121)
Fewer inactive variants are shown than the library holds.

B1: TPR 5TU (parent)
chain: GGAUCUUCUCGAUCUAACAAAAAAGACAAAUCUGCCACAAAGCUUGAGAGCAUCUUCGGAUGCAGAGGCGGCAGCCUUCGGUGGCGCGAUAGCGCCAACGUUCUCAACUAUGACACGCAAAACGCGUGCUCCGUUGAAUGGAGUUUAUCAUG

Variants of: B1
Experiment: polymerase ribozyme fitness, log enrichment relative to wild type (log ratio); higher = more active; in vitro selection for triplet polymerase activity
How it was run: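 Fitness measures genotype enrichment against wild-type enrichment on a logarithmic scale, with inverse-variance-weighted averaging of replicates. The logarithm is base 2, and genotypes were kept only with ≥10 input reads and ≥1 read per output in Illumina sequencing. The sequenced libraries came from one triplicate in vitro selection round, including frozen incubation at −7 °C, of PCR-built, transcribed mutant libraries of each subunit of a heterodimeric triplet polymerase ribozyme.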

Variant | polymerase ribozyme fitness (log ratio)
C85U U104G | -0.929
C85U A121C | -0.139
C85U C96U A98G A150G | -2.21
C85U A142G | -1.38
C85U G100U A121C G124A C125G G136A A142G G152U | ≤ -4.2
C85G G94U | -0.835
C85A G126A | -1.32
C85G C96G | -3.49
C85G C96U | -2.26
C85U C87G C95G C131A U134G A147U | ≤ -4.2
C85U A115U G140A | -3.77
C85G C123G U139A | ≤ -4.2
C85G G141A C149G | ≤ -4.2
C85G C99G C116G G136U | ≤ -4.2
C85U G136U G152C | ≤ -4.2
C85G U90A C114A | ≤ -4.2
C85U C93G A150G | ≤ -4.2
C85U U90C | -3.89
C85G A147C | -1.67
C85G A147U | -0.872
C85G G86A | -3.83
C85G G124A G133A | ≤ -4.2
C85G C125U | -3.35
C85G A121G C132U | -2.88

Variant | polymerase ribozyme fitness (log ratio)
C85A G152U | -3.5
C85U C114G G128A | ≤ -4.2
C85G C118U | -3.37
C85A G92C G141A G143U | ≤ -4.2
C85U A91U C95G G140U | ≤ -4.2
C85U U101G C105A U109G A110G | -4.19
C85G U109G U144C | ≤ -4.2
C85U C99G G136U | -2.88
C85U A89U A119C | -0.895
C85U G92U C125A G136C | -3.55
C85U C95U | -1.72
C85G C93U C116U U127G | ≤ -4.2
C85U C93G | -3.83
C85U A115U | -2.38
C85U A115G | -2.3
C85U C116G | -0.942
C85U C116U | -0.233
C85G G141C | -3.06
C85G U102G C129U A150C | ≤ -4.2
C85G G94A C95G U135A | -3.95
C85G G126A U146A | -1.79
C85U C103U | -2.17
C85A U144A | -0.579
C85A U144C | -0.693

Variant | polymerase ribozyme fitness (log ratio)
C85A U144G | -0.777
C85U G94C | -0.28
C85G C118A U146C | -2.72
C85U A122C | -1.06
C85U G143A | 0.273
C85G A122C | -1.98
C85U A98C G117C | 0.631
C85U C95G C108U | ≤ -4.2
C85A G136C | -4.19
C85A G140U | -3
C85A G140A | -4.18
C85U A89U A110C A121U G136A U146C | ≤ -4.2
C85A G117A A138G | -4.18
C85U C95U G133A | -4
C85U C105U | -0.279
C85G A97G A150U | -2.03
C85U G86U C93U U130A A138U | ≤ -4.2
C85U A107U | -3.65
C85U G94A G152C | -3.09
C85G A106G | -2.59
C85U A89G A106G G117A G126C G143C | ≤ -4.2
C85G C99U G112U C118U | ≤ -4.2
C85G A119U | -3.69
C85G U135C A138C | ≤ -4.2

Variant | polymerase ribozyme fitness (log ratio)
C85U C116U G141A | -2.95
C85U G86C G88A U90G A121U G128A | ≤ -4.2
C85A G124C | -1.69
C85A G124U | -1.9
C85G A122U C123A | -2.3
C85G G94U C118G | -0.928
C85A G92U C131G G152C | ≤ -4.2
C85U A89G | -2.67
C85G | -2.05
C85U | -0.513
C85G G128C | ≤ -4.2
C85U A98G | -0.688
C85U G140A | -3.24
C85U C87U U144G | 0.338
C85A U145G | -1.06
C85U C129U | -0.359
C85U C105U A106C U135C G141A | -3.94
C85U C125G G136A | -0.203
C85U C87U C108U C114A | ≤ -4.2
C85U G126U U139A U144C | -3.59
C85A G94A | -1.74
C85U G141C | -0.765
C85U G141U | 1.07
C85G U139C G143A | ≤ -4.2

Variant | polymerase ribozyme fitness (log ratio)
C85A U139C U145C | ≤ -4.2
C85G G92C A106C A120U A121G U134A | ≤ -4.2
C85A G94A G128C | -3.21
C85A U109G | -1.33
C85U G117A | 0.212
C85U G117U | 0.675
C85G C87U U145A | -2.77
C85G C149U | -2.46
C85G A106C G141C | -3.91
C85G A98G U144G | -0.337
C85U A121U C132A U134A | -4.16
C85U C87U | 0.308
C85A G112U A113C U148G | ≤ -4.2
C85A U135C | -2.15
C85A U135A | -0.589
C85U C96U | -0.746
C85U U127C | -2.51
C85U U127A | -3.36
C85U G128U C131U | -2.93
C85A G133U | ≤ -4.2
C85G C116U U144C | -3.36
C85U C125G | -0.638
C85U C125U | -0.156
C85U A98C G124C | -1.37

Variant | polymerase ribozyme fitness (log ratio)
C85G G133U | ≤ -4.2
C85U A89U C105U | 0.517
C85U A89U C105G | -1.55
C85U A91C U102C | ≤ -4.2
C85A U135G A137U | ≤ -4.2
C85G G143U | -3.79
C85A G92U G117U | -2.26
C85U A98U G117A | -0.373
C85G C114U | -3.49
C85U A89U G126U U145G | -3.94
C85U G133C | -1.69
C85U G133U | -2.28
C85A G94C A121C | -1.84
C85U G128A | -3.29
C85U A150C G152U | -3.38
C85U G124U | -0.801
C85A U127A | -3.68
C85U G136U | -1.83
C85A U134C | -0.169
C85A U134G | -3.6
C85U U101G | -1.15
C85U U101A | -0.791
C85U G88A A98U | -3.79
C85G C95A | -1.68

Variant | polymerase ribozyme fitness (log ratio)
C85G C96U C116A A137C | ≤ -4.2
C85G C93G | -3.68
C85A G112U | ≤ -4.2
C85G U144G | -1.75
C85G C125A U130C | -1.52
C85G G92U G136A G141A | -3.06
C85U C132U | -0.776
C85G U135A | -3.38
C85G U135C | -3.66
C85G C116U | -1.66
C85A G126C U148A | -4.13
C85A U148A | -3.51
C85A U148C | -2.22
C85G A142C | -2.98
C85G C99G | -4.1
C85U A97U A115U | -2.7
C85U G152U | -3.73
C85A G117C | -1.3
C85A G117A | -1.76
C85G C125A C131A C149U | ≤ -4.2
C85A U109G C118U | -1.54
C85U C99G G126A U135G | ≤ -4.2
C85G U144A A150U | -3.7
